# Tested on: dCas9-3xRFP
# Assay: Telomere labeling, automated image analysis
# Type: cell-based, Streptococcus pyogenes
# Details: U2OS, light or dark 20 h
# Description: U2OS cells were seeded into 4-compartment CELLview cell culture dishes (Greiner Bio-One) at a density of 30,000 cells per compartment. The next day, cells were transfected with vectors encoding (i) a CMV promoter-driven dCas9-3xRFP-P2A-CASANOVA and a U6 promoter-driven telomere-targeting gRNA, (ii) a telomere-targeting gRNA and GFP transfection marker, and (iii) a CMV promoter-driven CASANOVA in a ratio of 20:6:3 using 362.5 ng total DNA and 1.5 μl JetPrime for transfection (per compartment).
# In the positive control samples, vector i was replaced by a vector encoding dCas9-3xRFP (without the P2A-CASANOVA) and a U6 promoter-driven telomere-targeting RNA, and vector iii was replaced by an irrelevant DNA. […] SlowFade™ Diamond Antifade Mountant with DAPI (Invitrogen) was added and imaging was performed using the aforementioned microscopy setup and the following excitation/detection settings: 405 nm (1% laser powerV410-490 nm for DAPI, 488 nm (2% laser power)/493-578 nm for GFP, or 552 nm (1% laser power)/578-789 nm for RFP. RFP fluorescent spots (i.e., labeled telomeres) were then detected and quantified using a fully automated image analysis pipeline as follows. The ImageJ2 (beta) Integration in KNIME Version 3.5.2 (KNIME AG) was used to create an automated image processing and analysis pipeline employed for quantification of labeled telomeres. […]
molecule,measurement,value
"AcrIIA4: anti-CRISPR polypeptide of a Listeria monocytogenes prophage, SEQ ID NO: 1 (protein, Listeria monocytogenes) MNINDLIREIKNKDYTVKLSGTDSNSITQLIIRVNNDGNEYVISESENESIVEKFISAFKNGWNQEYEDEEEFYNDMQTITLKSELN","telomere labeling, light-independent",weak
